Data published in US20240116985A1, “STAPLED PEPTIDES AND METHODS THEREOF” (priority 2020, published 2024).
Starred links: 1 amine or outer side, 2 acyl side, 3 side chain; linkers in the order of their positions; H or OH if unused. Positions of bridges follow the written chain, without caps; N, C: chain ends. Non-standard residues stand in square brackets, D forms with d. Primed or numbered codes have the meaning given here. No end group written: not given here. *: point of attachment. PyrS2″ = (S)-3-amino-1-((pent-4-en-1-yloxy)carbonyl)pyrrolidine-3-carboxylic acid (stapling residue), C=CCCCOC(=O)N1CC[C@@](N[*:1])(C(=O)[*:2])C1; B5(4) = 2,2-bis(4-pentenyl)glycine = 2-amino-2-(pent-4-en-1-yl)hept-6-enoic acid (stitching residue), C=CCCCC(CCCC=C)(N[*:1])C(=O)[*:2]; B5(5) = 2,2-bis(4-pentenyl)glycine, 2-amino-2-(pent-4-en-1-yl)hept-6-enoic acid (stitching residue), C=CCCCC(CCCC=C)(N[*:1])C(=O)[*:2]; TfeGA = (S)-2-amino-3-((carboxymethyl)(2,2,2-trifluoroethyl)amino)propanoic acid, O=C([C@H](CN(CC(=O)[*:3])CC(F)(F)F)N[*:1])[*:2]; PyrS2 = (S)-3-amino-1-((pent-4-en-1-yloxy)carbonyl)pyrrolidine-3-carboxylic acid, C=CCCCOC(=O)N1CC[C@@](N[*:1])(C(=O)[*:2])C1; PyrS3 = (S)-3-amino-1-((hex-5-en-1-yloxy)carbonyl)pyrrolidine-3-carboxylic acid, C=CCCCCOC(=O)N1CC[C@@](N[*:1])(C(=O)[*:2])C1; Az2 = 3-amino-1-((pent-4-en-1-yloxy)carbonyl)azetidine-3-carboxylic acid, C=CCCCOC(=O)N1CC(N[*:1])(C(=O)[*:2])C1; Az3 = 3-amino-1-((hex-5-en-1-yloxy)carbonyl)azetidine-3-carboxylic acid, C=CCCCCOC(=O)N1CC(N[*:1])(C(=O)[*:2])C1; B5(12) = 2-amino-2-(pent-4-en-1-yl)hept-6-enoic acid (two olefin side chains), C=CCCCC(CCCC=C)(N[*:1])C(=O)[*:2]; B5(7) = 2-amino-2-(pent-4-en-1-yl)hept-6-enoic acid, two olefinic side chains, C=CCCCC(CCCC=C)(N[*:1])C(=O)[*:2]; B5(13) = 2-amino-2-(pent-4-en-1-yl)hept-6-enoic acid (two alkene chains), C=CCCCC(CCCC=C)(N[*:1])C(=O)[*:2]; B5(3) = 2,2-bis(4-pentenyl)glycine (stitching residue), C=CCCCC(CCCC=C)(N[*:1])C(=O)[*:2]; B5 = 2-amino-2-(pent-4-en-1-yl)hept-6-enoic acid, C=CCCCC(CCCC=C)(N[*:1])C(=O)[*:2]; Phe(3-COOH) = N[C@@H](Cc1cccc(C(=O)O)c1)C(=O)O; Phe(2-Cl) = N[C@@H](Cc1ccccc1Cl)C(=O)O; 1Nal = N[C@@H](Cc1cccc2ccccc12)C(=O)O; 2Nal = N[C@@H](Cc1ccc2ccccc2c1)C(=O)O; Bta = N[C@@H](Cc1csc2ccccc12)C(=O)O; αAllylPro = C=CC[C@@]1(C(=O)O)CCCN1; tBuAla = CC(C)(C)C[C@H](N)C(=O)O; 3Thi = N[C@@H](Cc1ccsc1)C(=O)O; S8 = C=CCCCCCC[C@](C)(N)C(=O)O; Thr(ol) = C[C@@H](O)[C@H](N)CO; hSer = N[C@@H](CCO)C(=O)O; Abu = CC[C@H](N)C(=O)O; Alaol = C[C@@H](CO)N*; Aib = CC(C)(N)C(=O)O

What was measured:
[1] = target: full-length beta-Catenin (Uniprot ID P35222) (Homo sapiens (Human)) (UniProt P35222); assay: FP competition: displacement of 5FAM-TCF4(10-53) from full-length beta-catenin
Target sequence in this assay (P35222 whole entry, the tested form may be a part, one chain of several): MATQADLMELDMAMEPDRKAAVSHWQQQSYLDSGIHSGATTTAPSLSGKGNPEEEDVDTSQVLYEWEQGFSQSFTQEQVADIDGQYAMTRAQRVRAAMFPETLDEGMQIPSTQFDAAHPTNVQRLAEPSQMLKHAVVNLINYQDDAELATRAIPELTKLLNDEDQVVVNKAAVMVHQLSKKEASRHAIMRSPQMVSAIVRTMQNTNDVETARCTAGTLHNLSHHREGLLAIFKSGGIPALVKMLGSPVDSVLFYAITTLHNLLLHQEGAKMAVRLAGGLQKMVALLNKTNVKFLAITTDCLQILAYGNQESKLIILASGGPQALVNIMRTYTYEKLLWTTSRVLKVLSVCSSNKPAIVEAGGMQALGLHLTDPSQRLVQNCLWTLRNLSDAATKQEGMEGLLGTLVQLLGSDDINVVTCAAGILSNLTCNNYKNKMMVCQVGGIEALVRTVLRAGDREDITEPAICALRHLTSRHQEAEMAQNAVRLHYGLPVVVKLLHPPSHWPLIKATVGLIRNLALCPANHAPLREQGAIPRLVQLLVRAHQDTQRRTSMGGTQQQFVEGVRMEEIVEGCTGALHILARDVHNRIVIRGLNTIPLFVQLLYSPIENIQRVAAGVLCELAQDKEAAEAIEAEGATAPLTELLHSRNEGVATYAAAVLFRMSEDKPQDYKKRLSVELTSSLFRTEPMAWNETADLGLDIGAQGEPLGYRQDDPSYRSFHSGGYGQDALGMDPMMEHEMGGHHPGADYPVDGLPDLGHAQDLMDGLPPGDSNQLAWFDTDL

[2] = target: B-cat-Halo (beta-catenin HaloTag NanoBRET construct expressed in HEK293 cells) (UniProt P35222); assay: NanoBRET Abs IC50 in HEK293 cells; Bcat-Halo, TCF4-Luc as competitor
[3] = target: full-length beta-Catenin (Uniprot ID P35222) (Homo sapiens (Human)) (UniProt P35222); assay: fluorescence polarization competition; full-length beta-catenin, 5FAM-TCF4(10-53) probe as competitor
Target sequence in this assay (P35222 2-781 limits assumed): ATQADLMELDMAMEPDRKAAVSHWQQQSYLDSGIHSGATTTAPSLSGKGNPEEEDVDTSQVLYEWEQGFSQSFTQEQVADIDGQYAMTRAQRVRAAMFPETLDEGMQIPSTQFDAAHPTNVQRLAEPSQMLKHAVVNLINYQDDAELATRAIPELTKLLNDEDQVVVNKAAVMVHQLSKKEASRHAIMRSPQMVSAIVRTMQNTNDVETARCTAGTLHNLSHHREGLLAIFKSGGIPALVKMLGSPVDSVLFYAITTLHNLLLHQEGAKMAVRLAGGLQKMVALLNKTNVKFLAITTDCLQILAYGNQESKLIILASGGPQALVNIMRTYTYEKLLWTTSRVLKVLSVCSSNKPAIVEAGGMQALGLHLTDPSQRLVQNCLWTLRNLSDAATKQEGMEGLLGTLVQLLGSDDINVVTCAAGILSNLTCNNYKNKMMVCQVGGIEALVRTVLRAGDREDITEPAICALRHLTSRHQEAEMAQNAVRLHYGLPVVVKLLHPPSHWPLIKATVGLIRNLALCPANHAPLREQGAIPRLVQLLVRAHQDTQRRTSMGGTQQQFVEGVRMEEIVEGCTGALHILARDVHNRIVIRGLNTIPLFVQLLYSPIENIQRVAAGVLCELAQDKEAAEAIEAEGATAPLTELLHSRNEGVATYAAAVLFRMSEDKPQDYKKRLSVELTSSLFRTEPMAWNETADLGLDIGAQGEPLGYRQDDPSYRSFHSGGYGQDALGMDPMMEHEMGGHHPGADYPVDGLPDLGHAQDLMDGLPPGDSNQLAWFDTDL

[4] = target: full-length beta-Catenin (Uniprot ID P35222) (Homo sapiens (Human)) (UniProt P35222); assay: fluorescence polarization competition; displacement of 5FAM-TCF4(10-53) from full-length beta-catenin
Target sequence in this assay (P35222 whole entry, the tested form may be a part, one chain of several): as the sequence (P35222 whole entry, the tested form may be a part, one chain of several) above

[5] = target: Bcat-Halo (beta-catenin HaloTag construct expressed in HEK293 cells) (UniProt P35222); assay: NanoBRET IC50 in HEK293 cells; Bcat-Halo with TCF4-Luc as competitor
[6] = target: full-length beta-Catenin (Uniprot ID P35222) (Homo sapiens (Human)) (UniProt P35222); assay: fluorescence polarization competition; 10 nM full-length beta-catenin with 10 nM 5FAM-TCF4 (residues 10-53) probe as competitor
Target sequence in this assay (P35222 2-781 limits assumed): as the sequence (P35222 2-781 limits assumed) above

[7] = target: full-length beta-Catenin (Uniprot ID P35222) (Homo sapiens (Human)) (UniProt P35222); assay: fluorescence polarization competition; full-length beta-catenin, competitor 5FAM-TCF4(10-53) probe
Bcat-Halo [8] = target: Bcat-Halo (UniProt P35222); assay: NanoBRET Abs IC50 in HEK293 cells; Bcat-Halo, TCF4-Luc as competitor
[9] = target: full-length beta-Catenin (Uniprot ID P35222) (Homo sapiens (Human)) (UniProt P35222); assay: competition fluorescence polarization; full-length beta-catenin, 5FAM-TCF4(10-53) probe as competitor
Target sequence in this assay (P35222 whole entry, the tested form may be a part, one chain of several): as the sequence (P35222 whole entry, the tested form may be a part, one chain of several) above

[10] = target: full-length beta-Catenin (Uniprot ID P35222) (Homo sapiens (Human)) (UniProt P35222); assay: FP competition vs 5FAM-TCF4(10-53), full-length beta-catenin
Target sequence in this assay (P35222 2-781 limits assumed): as the sequence (P35222 2-781 limits assumed) above

Bcat-Halo [11] = target: Bcat-Halo (UniProt P35222); assay: NanoBRET Abs IC50, HEK293 cells, B-cat-Halo/TCF4-Luc; competitor TCF4-Luc
[12] = target: full-length beta-Catenin (Uniprot ID P35222) (Homo sapiens (Human)) (UniProt P35222); assay: fluorescence polarization competition; 10 nM full-length beta-catenin with 10 nM 5FAM-TCF4(10-53) probe
Target sequence in this assay (P35222 2-781 limits assumed): as above

[13] = target: full-length beta-Catenin (Uniprot ID P35222) (Homo sapiens (Human)) (UniProt P35222); assay: fluorescence polarization competition; 10 nM full-length beta-catenin with 10 nM 5FAM-labeled TCF4 residues 10-53 probe, peptide titrated
Target sequence in this assay (P35222 whole entry, the tested form may be a part, one chain of several): as the sequence (P35222 whole entry, the tested form may be a part, one chain of several) above

[14] = target: full-length beta-Catenin (Uniprot ID P35222) (Homo sapiens (Human)) (UniProt P35222); assay: fluorescence polarization competition; full-length beta-catenin with 5FAM-TCF4(10-53) probe as competitor
Target sequence in this assay (P35222 whole entry, the tested form may be a part, one chain of several): as above

Bcat-Halo [15] = target: Bcat-Halo (UniProt P35222); assay: NanoBRET in HEK293 cells, Bcat-Halo/TCF4-Luc (competitor TCF4-Luc); absolute IC50
[16] = target: full-length beta-Catenin (Uniprot ID P35222) (Homo sapiens (Human)) (UniProt P35222); assay: fluorescence polarization competition; full-length beta-catenin with 5FAM-labeled TCF4 (10-53) probe as competitor
Target sequence in this assay (P35222 whole entry, the tested form may be a part, one chain of several): as above

[17] = target: full-length beta-Catenin (Uniprot ID P35222) (Homo sapiens (Human)) (UniProt P35222); assay: fluorescence polarization competition; full-length beta-catenin, competitor probe 5FAM-TCF4(10-53)
Target sequence in this assay (P35222 2-781 limits assumed): as the sequence (P35222 2-781 limits assumed) above

[18] = target: B-cat-Halo (beta-catenin HaloTag NanoBRET construct expressed in HEK293 cells) (UniProt P35222); assay: NanoBRET Abs IC50; HEK293 cells transfected with B-cat-Halo and TCF4-Luc (competitor: TCF4-Luc)
[19] = target: full-length beta-Catenin (Uniprot ID P35222) (Homo sapiens (Human)) (UniProt P35222); assay: fluorescence polarization competition; peptide displaces 5FAM-TCF4(10-53) from full-length beta-catenin
Target sequence in this assay (P35222 2-781 limits assumed): as above

Bcat-Halo [20] = target: Bcat-Halo (UniProt P35222); assay: NanoBRET in HEK293 cells, Bcat-Halo/TCF4-Luc (competitor TCF4-Luc); percent inhibition at 10 uM peptide

B-cat-Halo (beta-catenin HaloTag NanoBRET construct expressed in HEK293 cells), sequence (P35222 whole entry): as the sequence (P35222 whole entry, the tested form may be a part, one chain of several) above
Bcat-Halo (beta-catenin HaloTag construct expressed in HEK293 cells), sequence (P35222 whole entry, the tested form may be a part): as the sequence (P35222 whole entry, the tested form may be a part, one chain of several) above
Bcat-Halo, sequence (P35222 whole entry): as the sequence (P35222 whole entry, the tested form may be a part, one chain of several) above

Binder: Ac-[αAllylPro]D[tBuAla][B5(5)]DDAAFT[PyrS2″][3Thi][1Nal]Q-NH2 (staple 1-4, 4-11) [I-1232]
- EC50 [1]: 0.031 µM
- IC50 [2]: 43.3 µM
- IC50 [3]: 0.031 µM

Binder: Ac-[αAllylPro]D[tBuAla][B5(4)]DTAAFN[PyrS2][3Thi][Bta]Q-NH2 (staple 1-4, 4-11) [I-844]
- IC50 [4]: 0.006 µM
- IC50 [5]: 10.7 µM
- EC50 [6]: 0.006 µM

Binder: Ac-[αAllylPro]D[Abu][B5]DDAAFN[S8]F[Bta]H-NH2 (staple 1-4, 4-11) [I-574]
- EC50 [7]: 0.036 µM
- IC50 (Bcat-Halo [8]): > 20 µM
- IC50 [9]: 0.036 µM

Binder: Ac-[αAllylPro]D[tBuAla][B5(12)]DNAAFN[PyrS2][3Thi][Bta]-NH2 (staple 1-4, 4-11) [I-857]
- IC50 [10]: 0.015 µM
- IC50 [5]: 50.6 µM
- EC50 [6]: 0.015 µM
- IC50 (Bcat-Halo [11]): 30.6 µM

B1: I-2618 (peptide)
peptide: Ac-[αAllylPro]D[tBuAla][B5(3)]D[Phe(3-COOH)][Aib]AFL[Az3][3Thi][Bta]Q-NH2
modifications: staple 1-4, 4-11; not fully specified; printed as Ac-PL3-Asp-Npg-B5-Asp-3COOHF-Aib-Ala-Phe-Leu-Az3-3Thi-BztA-Gln-NH2
- IC50 [12]: 0.077 µM

B2: I-1985 (peptide)
peptide: PD[tBuAla][B5]D[Phe(3-COOH)]AAFL[PyrS2][Phe(2-Cl)][Bta]Q-NH2
modifications: staple 4-11; staple (positions not given here); not fully specified (residue 1, N-terminus, bridges); printed as ProAm6-Asp-Npg-B5-Asp-3COOHF-Ala-Ala-Phe-Leu-PyrS2-2C1F-BztA-Gln-NH2
- IC50 [13]: 0.325 µM

Binder: Ac-[αAllylPro]D[tBuAla][B5(3)]D[Phe(3-COOH)][Aib]AFL[Az2][3Thi][Bta]Q-NH2 (staple 1-4, 4-11) [I-2617]
- IC50 [12]: 0.13 µM

Binder: Ac-[αAllylPro]D[tBuAla][B5(7)]D[TfeGA]AAFN[PyrS2][3Thi][Bta]H-NH2 (staple 1-4, 4-11; also: later-eluting staple isomer) [I-770]
- EC50 [7]: 0.005 µM
- IC50 [14]: 0.005 µM
- IC50 (Bcat-Halo [15]): 13.7 µM

Binder: Ac-[αAllylPro]D[Abu][B5(4)]DEAAFQ[S8]F[Bta]H-NH2 (staple 1-4, 4-11) [I-571]
- EC50 [4]: 0.032 µM
- IC50 (Bcat-Halo [8]): 15.6 µM
- IC50 [9]: 0.032 µM

B3: I-1984 (peptide)
peptide: PD[tBuAla][B5]D[Phe(3-COOH)]AAFL[PyrS2][Phe(2-Cl)][Bta]Q-NH2
modifications: staple 4-11; staple (positions not given here); not fully specified (residue 1, N-terminus, bridges); printed as ProAm5-Asp-Npg-B5-Asp-3COOHF-Ala-Ala-Phe-Leu-PyrS2-2C1F-BztA-Gln-NH2
- IC50 [13]: 0.32 µM

Binder: Ac-[αAllylPro]D[tBuAla][B5(3)]D[TfeGA]AAFF[PyrS2″][Phe(2-Cl)][Bta]S-NH2 (staple 1-4, 4-11) [I-990]
- EC50 [16]: 0.041 µM
- IC50 [17]: 0.041 µM
- IC50 [18]: 8.8 µM

Binder: Ac-[αAllylPro]D[tBuAla][B5(4)]D[TfeGA]AAFT[PyrS2″][Phe(2-Cl)][Bta]-Alaol (staple 1-4, 4-11) [I-1242]
- EC50 [1]: 0.03 µM
- IC50 [2]: > 20 µM
- IC50 [3]: 0.03 µM

Binder: Ac-[αAllylPro]D[tBuAla][B5(13)]DDAAFN[PyrS3][3Thi][Bta]H-NH2 (staple 1-4, 4-11) [I-775]
- IC50 [19]: 0.006 µM
- NanoBRET % inh @ 10 uM (Bcat-Halo [20]): 5.1%
- EC50 [7]: 0.007 µM

B4: I-1986 (peptide)
peptide: PD[tBuAla][B5]D[TfeGA]AAFT[PyrS2][Phe(2-Cl)][Bta]Q-NH2
modifications: staple 4-11; staple (positions not given here); not fully specified (residue 1, N-terminus, bridges)
- IC50 [13]: 0.502 µM

B5: I-2619 (peptide)
peptide: Ac-[αAllylPro]D[tBuAla][B5(4)]D[Phe(3-COOH)][Aib]AFL[Az3][3Thi][Bta]Q-NH2
modifications: staple 1-4, 4-11; not fully specified; printed as Ac-PL3-Asp-Npg-B5-Asp-3COOHF-Aib-Ala-Phe-Leu-Az3-3Thi-BztA-Gln-NH2
- IC50 [12]: 0.036 µM

Binder: Ac-[αAllylPro]D[tBuAla][B5(7)]D[TfeGA]AAFN[PyrS2][3Thi][Bta]H-NH2 (staple 1-4, 4-11; also: earlier-eluting staple isomer) [I-769]
- EC50 [7]: 0.005 µM
- IC50 [14]: 0.005 µM
- IC50 (Bcat-Halo [15]): 13 µM

Binder: Ac-[αAllylPro]D[tBuAla][B5(3)]D[TfeGA]AAFF[PyrS2″]F[Bta]Q-NH2 (staple 1-4, 4-11) [I-988]
- EC50 [16]: 0.005 µM
- IC50 [17]: 0.005 µM
- IC50 [18]: 13.9 µM

Binder: Ac-[αAllylPro]D[tBuAla][B5(5)]DDAAFN[S8]F[Bta]H-NH2 (staple 1-4, 4-11) [I-582]
- EC50 [7]: 0.0175 µM
- IC50 (Bcat-Halo [8]): 15.8 µM
- IC50 [9]: 0.0175 µM

Binder: Ac-[αAllylPro]D[tBuAla][B5(4)]D[TfeGA]AAFT[PyrS2″][Phe(2-Cl)][Bta][Thr(ol)] (staple 1-4, 4-11) [I-1241]
- EC50 [1]: 0.019 µM
- IC50 [2]: 15.7 µM
- IC50 [3]: 0.019 µM

Binder: Ac-[αAllylPro]D[tBuAla][B5(3)]D[TfeGA]AAF[hSer][S8][Phe(2-Cl)][Bta]Q-NH2 (staple 1-4, 4-11) [I-996]
- EC50 [16]: 0.021 µM
- IC50 [17]: 0.021 µM
- IC50 [18]: 11.3 µM

Binder: Ac-[αAllylPro]D[tBuAla][B5(3)]DHAAFN[PyrS2″][3Thi][Bta]Q-NH2 (staple 1-4, 4-11) [I-864]
- IC50 [10]: 0.012 µM
- IC50 [5]: 29.1 µM
- EC50 [6]: 0.012 µM
- IC50 (Bcat-Halo [11]): 40 µM

Binder: Ac-[αAllylPro]D[tBuAla][B5(5)]DDAAFT[PyrS2″][3Thi][2Nal]Q-NH2 (staple 1-4, 4-11) [I-1233]
- EC50 [1]: 0.024 µM
- IC50 [2]: 54.5 µM
- IC50 [3]: 0.024 µM
